Data taken from US20230140293A1.

Key:
Test in all cases: cell-based or functional assay
[1] = biological target: CH0505.w4.3 Env, Env-pseudotyped virus produced in 293T cells (HIV-1)
[2] = biological target: CH0505TF Env, Env-pseudotyped virus produced in 293S GnTI- cells (Man5-enriched) (HIV-1)
[3] = biological target: CH0505TF Env, Env-pseudotyped virus produced in 293T cells (HIV-1)
[4] = biological target: CH0505TF.G458Y Env, Env-pseudotyped virus produced in 293S GnTI- cells (Man5-enriched) (HIV-1)
[5] = biological target: CH0505TF.G458Y Env, Env-pseudotyped virus produced in 293T cells (HIV-1)
[6] = biological target: CH0505TF.gly3.197 Env, Env-pseudotyped virus produced in 293S GnTI- cells (Man5-enriched) (HIV-1)
[7] = biological target: CH0505TF.gly3.197 Env, Env-pseudotyped virus produced in 293T cells (HIV-1)
[8] = biological target: CH0505TF.gly3.276 Env, Env-pseudotyped virus produced in 293S GnTI- cells (Man5-enriched) (HIV-1)
[9] = biological target: CH0505TF.gly3.276 Env, Env-pseudotyped virus produced in 293T cells (HIV-1)
[10] = biological target: CH0505TF.gly3.461 Env, Env-pseudotyped virus produced in 293S GnTI- cells (Man5-enriched) (HIV-1)
[11] = biological target: CH0505TF.gly3.461 Env, Env-pseudotyped virus produced in 293T cells (HIV-1)
[12] = biological target: CH0505TF.gly4 Env, Env-pseudotyped virus produced in 293S GnTI- cells (Man5-enriched) (HIV-1)
[13] = biological target: CH0505TF.gly4 Env, Env-pseudotyped virus produced in 293T cells (HIV-1)
[14] = biological target: HIV-1 426c.DM (N460D/N463D) Env on Env-pseudotyped virus produced in 293T cells (HIV-1)
[15] = biological target: HIV-1 426c.DM (N460D/N463D) Env on Env-pseudotyped virus produced in 293s/GnTI-/- cells (Man5-enrichment) (HIV-1)
[16] = biological target: HIV-1 426c.SM (N276D) Env on Env-pseudotyped virus produced in 293T cells (HIV-1)
[17] = biological target: HIV-1 426c.SM (N276D) Env on Env-pseudotyped virus produced in 293s/GnTI-/- cells (Man5-enrichment) (HIV-1)
[18] = biological target: HIV-1 426c.TM (N276D/N460D/N463D) Env on Env-pseudotyped virus produced in 293T cells (HIV-1)
[19] = biological target: HIV-1 426c.TM (N276D/N460D/N463D) Env on Env-pseudotyped virus produced in 293s/GnTI-/- cells (Man5-enrichment) (HIV-1)
[20] = biological target: HIV-1 Env 426c, Env-pseudotyped virus produced in 293S GnTI- cells (Man5-enriched) (HIV-1 clade C strain 426c)
[21] = biological target: HIV-1 Env 426c, Env-pseudotyped virus produced in 293T cells (HIV-1 clade C strain 426c)
[22] = biological target: HIV-1 Env 426c.DM (N460D.N463D), Env-pseudotyped virus produced in 293S GnTI- cells (Man5-enriched) (HIV-1 clade C strain 426c)
[23] = biological target: HIV-1 Env 426c.DM (N460D.N463D), Env-pseudotyped virus produced in 293T cells (HIV-1 clade C strain 426c)
[24] = biological target: HIV-1 Env 426c.SM (N276D), Env-pseudotyped virus produced in 293S GnTI- cells (Man5-enriched) (HIV-1 clade C strain 426c)
[25] = biological target: HIV-1 Env 426c.SM (N276D), Env-pseudotyped virus produced in 293T cells (HIV-1 clade C strain 426c)
[26] = biological target: HIV-1 Env 426c.TM (N276D.N460D.N463D), Env-pseudotyped virus produced in 293S GnTI- cells (Man5-enriched) (HIV-1 clade C strain 426c)
[27] = biological target: HIV-1 Env 426c.TM (N276D.N460D.N463D), Env-pseudotyped virus produced in 293T cells (HIV-1 clade C strain 426c)
[28] = biological target: HIV-1 Env 426c.TM4 (S278R.G471S.N460D.N463D), Env-pseudotyped virus produced in 293S GnTI- cells (Man5-enriched) (HIV-1 clade C strain 426c)
[29] = biological target: HIV-1 Env 426c.TM4 (S278R.G471S.N460D.N463D), Env-pseudotyped virus produced in 293T cells (HIV-1 clade C strain 426c)
[30] = biological target: HIV-1 clade C strain 426c Env on Env-pseudotyped virus produced in 293T cells (HIV-1)
[31] = biological target: HIV-1 clade C strain 426c Env on Env-pseudotyped virus produced in 293s/GnTI-/- cells (Man5-enrichment) (HIV-1)

| Substance | IC50 (µg/ml) in TZM-bl [1] [µg/mL] | IC50 (µg/ml) in TZM-bl [2] [µg/mL] | IC50 (µg/ml) in TZM-bl [3] [µg/mL] | IC50 (µg/ml) in TZM-bl [4] [µg/mL] | IC50 (µg/ml) in TZM-bl [5] [µg/mL] | IC50 (µg/ml) in TZM-bl [6] [µg/mL] | IC50 (µg/ml) in TZM-bl [7] [µg/mL] | IC50 (µg/ml) in TZM-bl [8] [µg/mL] | IC50 (µg/ml) in TZM-bl [9] [µg/mL] | IC50 (µg/ml) in TZM-bl [10] [µg/mL] | IC50 (µg/ml) in TZM-bl [11] [µg/mL] | IC50 (µg/ml) in TZM-bl [12] [µg/mL] | IC50 (µg/ml) in TZM-bl [13] [µg/mL] | ID50/IC50 in TZM-bl [14] [µg/mL] | ID50/IC50 in TZM-bl [15] [µg/mL] | ID50/IC50 in TZM-bl [16] [µg/mL] | ID50/IC50 in TZM-bl [17] [µg/mL] | ID50/IC50 in TZM-bl [18] [µg/mL] | ID50/IC50 in TZM-bl [19] [µg/mL] | IC50 (µg/ml) in TZM-bl [20] [µg/mL] | further results |
| --- | --- | --- | --- | --- | --- | --- | --- | --- | --- | --- | --- | --- | --- | --- | --- | --- | --- | --- | --- | --- | --- |
| 3074 (antibody) | 0.02 | > 25 | > 25 | > 25 | 9.4 | > 25 | > 25 | 4.8 | 14.1 | 10.2 | 7.3 | 5.6 | 7.2 | > 25 | > 25 | > 25 | 23 | > 25 | > 25 | > 25 | IC50 (µg/ml) in TZM-bl [21]: > 25 µg/mL; IC50 (µg/ml) in TZM-bl [22]: > 25 µg/mL; IC50 (µg/ml) in TZM-bl [23]: > 25 µg/mL; IC50 (µg/ml) in TZM-bl [24]: 23 µg/mL; IC50 (µg/ml) in TZM-bl [25]: > 25 µg/mL; IC50 (µg/ml) in TZM-bl [26]: > 25 µg/mL; IC50 (µg/ml) in TZM-bl [27]: > 25 µg/mL; IC50 (µg/ml) in TZM-bl [28]: > 25 µg/mL; IC50 (µg/ml) in TZM-bl [29]: > 25 µg/mL; ID50/IC50 in TZM-bl [30]: > 25 µg/mL; ID50/IC50 in TZM-bl [31]: > 25 µg/mL |
| 3869 (antibody) | 3.1 | > 25 | > 25 | > 25 | > 25 | > 25 | > 25 | > 25 | > 25 | > 25 | > 25 | > 25 | > 25 | > 25 | > 25 | > 25 | > 25 | > 25 | > 25 | > 25 | IC50 (µg/ml) in TZM-bl [21]: > 25 µg/mL; IC50 (µg/ml) in TZM-bl [22]: > 25 µg/mL; IC50 (µg/ml) in TZM-bl [23]: > 25 µg/mL; IC50 (µg/ml) in TZM-bl [24]: > 25 µg/mL; IC50 (µg/ml) in TZM-bl [25]: > 25 µg/mL; IC50 (µg/ml) in TZM-bl [26]: > 25 µg/mL; IC50 (µg/ml) in TZM-bl [27]: > 25 µg/mL; IC50 (µg/ml) in TZM-bl [28]: > 25 µg/mL; IC50 (µg/ml) in TZM-bl [29]: > 25 µg/mL; ID50/IC50 in TZM-bl [30]: > 25 µg/mL; ID50/IC50 in TZM-bl [31]: > 25 µg/mL |
| 4E10 (antibody) | > 50 | 10 | 22 | 10 | 8 | 14 | 21 | 13 | 17 | 12 | 16 | 12.3 | 14 | 1 | 3.7 | 1.52 | 3.8 | 0.98 | 4 | 4 | IC50 (µg/ml) in TZM-bl [21]: 3.32 µg/mL; IC50 (µg/ml) in TZM-bl [22]: 3.7 µg/mL; IC50 (µg/ml) in TZM-bl [23]: 1 µg/mL; IC50 (µg/ml) in TZM-bl [24]: 3.8 µg/mL; IC50 (µg/ml) in TZM-bl [25]: 1.52 µg/mL; IC50 (µg/ml) in TZM-bl [26]: 4 µg/mL; IC50 (µg/ml) in TZM-bl [27]: 0.98 µg/mL; IC50 (µg/ml) in TZM-bl [28]: 1.6 µg/mL; IC50 (µg/ml) in TZM-bl [29]: 1.66 µg/mL; ID50/IC50 in TZM-bl [30]: 3.32 µg/mL; ID50/IC50 in TZM-bl [31]: 4 µg/mL |
| 2219 (antibody) | > 25 | > 25 | > 25 | > 25 | > 25 | > 25 | > 25 | > 25 | > 25 | > 25 | > 25 | > 25 | > 25 | > 25 | > 25 | > 25 | > 25 | > 25 | > 25 | > 25 | IC50 (µg/ml) in TZM-bl [21]: > 25 µg/mL; IC50 (µg/ml) in TZM-bl [22]: > 25 µg/mL; IC50 (µg/ml) in TZM-bl [23]: > 25 µg/mL; IC50 (µg/ml) in TZM-bl [24]: > 25 µg/mL; IC50 (µg/ml) in TZM-bl [25]: > 25 µg/mL; IC50 (µg/ml) in TZM-bl [26]: > 25 µg/mL; IC50 (µg/ml) in TZM-bl [27]: > 25 µg/mL; IC50 (µg/ml) in TZM-bl [28]: > 25 µg/mL; IC50 (µg/ml) in TZM-bl [29]: > 25 µg/mL; ID50/IC50 in TZM-bl [30]: > 25 µg/mL; ID50/IC50 in TZM-bl [31]: > 25 µg/mL |
